Series [1] concerns the target T1, Teb1p (6HN-Teb1) (Schizosaccharomyces pombe, UniProt Q10274 2-390).
T1 sequence: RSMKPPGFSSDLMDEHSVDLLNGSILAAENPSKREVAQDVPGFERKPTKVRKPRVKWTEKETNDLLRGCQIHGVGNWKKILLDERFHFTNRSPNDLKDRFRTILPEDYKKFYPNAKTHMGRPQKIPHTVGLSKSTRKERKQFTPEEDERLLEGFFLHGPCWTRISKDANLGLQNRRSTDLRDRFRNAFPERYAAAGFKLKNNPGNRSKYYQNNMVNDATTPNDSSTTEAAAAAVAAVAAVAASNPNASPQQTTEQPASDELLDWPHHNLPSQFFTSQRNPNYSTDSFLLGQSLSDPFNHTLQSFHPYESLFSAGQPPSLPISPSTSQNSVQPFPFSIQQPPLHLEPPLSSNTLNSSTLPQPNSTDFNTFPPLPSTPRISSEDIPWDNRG
Briefly: fluorescence anisotropy; HNE, no DTT, 25 C; HNE: 20 mM HEPES-NaOH pH 7.5, 1 mM EDTA, 100 mM NaCl (Teb1); HNED = HNE + 0.1 mM DTT (Taz1). FA: 2 nM DNA, 25 C (Teb1/SpTEL 37 C). EMSA: 15 nM DNA, 0.05-4.5 uM. Conditions: protein: recombinant; tags: N-terminal 6HN; C-terminal GST removed with PreScission protease (residual site residues); EMSA: 5'-32P on strand A; blunt. On the technique in general: Polarisation of emitted light reports the rotation of a fluorescent probe.

The target in another series is T2, Taz1p (6HN-Taz1) (Schizosaccharomyces pombe, UniProt P79005 2-663).
T2 sequence: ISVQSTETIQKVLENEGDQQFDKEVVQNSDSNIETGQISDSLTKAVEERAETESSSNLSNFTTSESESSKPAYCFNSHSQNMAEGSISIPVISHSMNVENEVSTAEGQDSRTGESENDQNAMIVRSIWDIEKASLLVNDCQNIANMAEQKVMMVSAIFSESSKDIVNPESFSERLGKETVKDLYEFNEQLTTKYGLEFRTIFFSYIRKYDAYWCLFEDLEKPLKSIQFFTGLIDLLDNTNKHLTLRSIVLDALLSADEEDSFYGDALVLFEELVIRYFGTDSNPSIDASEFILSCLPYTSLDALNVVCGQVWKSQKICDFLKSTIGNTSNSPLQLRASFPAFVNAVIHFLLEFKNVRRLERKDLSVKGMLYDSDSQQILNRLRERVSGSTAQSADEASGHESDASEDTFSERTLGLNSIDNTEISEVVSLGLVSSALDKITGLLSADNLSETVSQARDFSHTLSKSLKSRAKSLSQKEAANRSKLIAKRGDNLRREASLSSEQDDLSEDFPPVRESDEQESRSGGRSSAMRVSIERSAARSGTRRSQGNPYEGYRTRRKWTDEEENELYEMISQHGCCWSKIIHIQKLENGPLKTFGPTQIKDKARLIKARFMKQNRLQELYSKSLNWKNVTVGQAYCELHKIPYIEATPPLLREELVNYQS
Put plainly: fluorescence anisotropy; HNED, 0.1 mM DTT, 25 C; HNE: 20 mM HEPES-NaOH pH 7.5, 1 mM EDTA, 100 mM NaCl (Teb1); HNED = HNE + 0.1 mM DTT (Taz1). FA: 2 nM DNA, 25 C (Teb1/SpTEL 37 C). EMSA: 15 nM DNA, 0.05-4.5 uM. Conditions: protein: recombinant; tags: N-terminal 6HN; chain copies: 2; EMSA: 5'-32P on strand A; blunt.

The target of series [2] is T1, Teb1p (6HN-Teb1). Put plainly: EMSA; no DTT; almost complete restoration; HNE: 20 mM HEPES-NaOH pH 7.5, 1 mM EDTA, 100 mM NaCl (Teb1); HNED = HNE + 0.1 mM DTT (Taz1). FA: 2 nM DNA, 25 C (Teb1/SpTEL 37 C). EMSA: 15 nM DNA, 0.05-4.5 uM. The note with it: protein: recombinant; tags: N-terminal 6HN; C-terminal GST removed with PreScission protease (residual site residues); label: 5'-32P on strand A; blunt. Background: Mobility shift assays separate free from complexed probe on a gel.

In series [3] the target is T1, Teb1p (6HN-Teb1). Put plainly: fluorescence anisotropy; HNE, no DTT, 37 C; HNE: 20 mM HEPES-NaOH pH 7.5, 1 mM EDTA, 100 mM NaCl (Teb1); HNED = HNE + 0.1 mM DTT (Taz1). FA: 2 nM DNA, 25 C (Teb1/SpTEL 37 C). EMSA: 15 nM DNA, 0.05-4.5 uM. The note with it: protein: recombinant; tags: N-terminal 6HN; C-terminal GST removed with PreScission protease (residual site residues); EMSA: 5'-32P on strand A; blunt.

Series [4] has as its target T1, Teb1p (6HN-Teb1). Put plainly: EMSA; no DTT; HNE: 20 mM HEPES-NaOH pH 7.5, 1 mM EDTA, 100 mM NaCl (Teb1); HNED = HNE + 0.1 mM DTT (Taz1). FA: 2 nM DNA, 25 C (Teb1/SpTEL 37 C). EMSA: 15 nM DNA, 0.05-4.5 uM. Conditions: protein: recombinant; tags: N-terminal 6HN; C-terminal GST removed with PreScission protease (residual site residues); label: 5'-32P on strand A; blunt.

B1: HsTEL (dsDNA)
DNA 1: GTTAGGGTTAGGGTTAG
DNA 2: CTAACCCTAACCCTAAC
For the molecule B1, the Kd – broadly, a measure of binding affinity in units of concentration – with Teb1p (6HN-Teb1) [1] worked out at 31 ± 5 nM; in the series with Taz1p (6HN-Taz1), 54 ± 5 nM.

B2: HisBoxFlankPart (dsDNA)
DNA 1: AGGGTTAGGGTTACAGC
DNA 2: GCTGTAACCCTAACCCT
As for B2, the binding result with Teb1p (6HN-Teb1) [2] was “binds”.

B3: SpTEL (dsDNA)
DNA 1: TTACAGGGGGTTACAGGG
DNA 2: CCCTGTAACCCCCTGTAA
Turning to B3, the Kd with Teb1p (6HN-Teb1) [3] was found to be 380 ± 30 nM; with Taz1p (6HN-Taz1), 115 ± 9 nM.

B4: HisBox (dsDNA)
DNA 1: AGGGTTAGGGTTGTGAT
DNA 2: ATCACAACCCTAACCCT
In the case of B4, the Kd is 53 ± 6 nM with Teb1p (6HN-Teb1) [1] and 380 ± 50 nM with Taz1p (6HN-Taz1).

B5: HisBoxMut (dsDNA)
DNA 1: AGGGTGTGAGTTGTGAT
DNA 2: ATCACAACTCACACCCT
Regarding B5, the binding result in the series with Teb1p (6HN-Teb1) [4] was “no binding”.
